# Measured values as given in the RNAGym collection of RNA variant scans (doi:10.1093/molbev/msab373).
# B1: Azoarcus group I ribozyme (parent)
# chain: GUGCCUUGCGCCGGGAAACCACGCAAGGGAUGGUGUCAAAUUCGGCGAAACCUAAGCGCCCGCCCGGGCGUAUGGCAACGCCGAGCCAAGCUUCGGCGCCUGCGCCGAUGAAGGUGUAGAGACUAGACGGCACCCACCUAAGGCAAACGCUAUGGUGAAGGCAUAGUCCAGGGAGUGGCGAAAGUCACACAAACCGG
# Variants of: B1
# Test: reverse-splicing fitness (ratio to wild type); higher = more active; in vitro selection; Mg2+ level not given
# Summary of the method: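 An in vitro group I ribozyme library with randomized positions was T7-transcribed and gel-purified. In triplicate, 10 pmol RNA in EPPS pH 7.5 was reacted with 50 pmoles of a 30-nt RNA substrate for 1 h at 37 °C across several added MgCl2 levels (1–48 mM), then stopped with EDTA. Products were reverse transcribed from a substrate-complementary primer, PCR-amplified and sequenced (HiSeq 4000). Fitness is a variant's read proportion after selection over that before, normalised to wild type.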
row,Variant,reverse-splicing fitness
1,GUGCCUUGCGCCGGGAAACCACGCAAGGGAUGGUGUCAAAUUCGGCGAAACCUAAGCGCCCGCCCGGGCGUAUGGCAACGCUGAGCCAAGCUUCGGCGCCUGCGCCGAUGGAGGUGUAGUGACUAGACGGCACCCACCUAAGGCGAACGGUAUGGUGAAGGCAUAGUCCAGGGAGUGGCGAAAGUCACACAAACCGG [C82U A111G A120U A145G C150G],0.00906
2,GUGCCUUGCGCCGGGAAACCACGCAAGGGAUGGUGUCAAAUUCGGCGAAACCUAAGCGCCCGCCCGGGCGUAUGGCAACGCUGAGCCAAGCUUCGGCGCCUGCGCCGAUGGAGGUGUAGUGACUAGACGGCACCCACCUAAGGCGAACGAUAUGGUGAAGGCAUAGUCCAGGGAGUGGCGAAAGUCACACAAACCGG [C82U A111G A120U A145G C150A],0.01
3,GUGCCUUGCGCCGGGAAACCACGCAAGGGAUGGUGUCAAAUUCGGCGAAACCUAAGCGCCCGCCCGGGCGUAUGGCAACGCUGAGCCAAGCUUCGGCGCCUGCGCCGAUGGAGGUGUAGUGACUAGACGGCACCCACCUAAGGCGAACGAUAUGGUGAAGGCAUAGUCUAGGGAGGGGCGAAAGUCACACAAACCGG [C82U A111G A120U A145G C150A C169U U176G],0.00215
4,GUGCCUUGCGCCGGGAAACCACGCAAGGGAUGGUGUCAAAUUCGGCGAAACCUAAGCGCCCGCCCGGGCGUAUGGCAACGCUGAGCCAAGCUUCGGCGCCUGCGCCGAUGGAGGUGUAGUGACUAGACGGCACCCACCUAAGGCGAACGAUAUGGUGAAGGCAUAGUCUAGGGAGAGGCGAAAGUCACACAAACCGG [C82U A111G A120U A145G C150A C169U U176A],0.00427
5,GUGCCUUGCGCCGGGAAACCACGCAAGGGAUGGUGUCAAAUUCGGCGAAACCUAAGCGCCCGCCCGGGCGUAUGGCAACGCUGAGCCAAGCUUCGGCGCCUGCGCCGAUGGAGGUGUAGUGACUAGACGGCACCCACCUAAGGCGAACGAUAUGGUGAAGGCAUAGUCUAGGGAGCGGCGAAAGUCACACAAACCGG [C82U A111G A120U A145G C150A C169U U176C],0.00341
6,GUGCCUUGCGCCGGGAAACCACGCAAGGGAUGGUGUCAAAUUCGGCGAAACCUAAGCGCCCGCCCGGGCGUAUGGCAACGCUGAGCCAAGCUUCGGCGCCUGCGCCGAUGGAGGUGUAGUGACUAGACGGCACCCACCUAAGGCGAACGAUAUGGUGAAGGCAUAGUCGAGGGAGUGGCGAAAGUCACACAAACCGG [C82U A111G A120U A145G C150A C169G],0.00549
7,GUGCCUUGCGCCGGGAAACCACGCAAGGGAUGGUGUCAAAUUCGGCGAAACCUAAGCGCCCGCCCGGGCGUAUGGCAACGCUGAGCCAAGCUUCGGCGCCUGCGCCGAUGGAGGUGUAGUGACUAGACGGCACCCACCUAAGGCGAACGAUAUGGUGAAGGCAUAGUCAAGGGAGUGGCGAAAGUCACACAAACCGG [C82U A111G A120U A145G C150A C169A],0.00559
8,GUGCCUUGCGCCGGGAAACCACGCAAGGGAUGGUGUCAAAUUCGGCGAAACCUAAGCGCCCGCCCGGGCGUAUGGCAACGCUGAGCCAAGCUUCGGCGCCUGCGCCGAUGGAGGUGUAGUGACUAGACGGCACCCACCUAAGGCGAACGAUAUGGUGAAGGCAUAGUCUAGGGAGUGGCGAAAGUCACACAAACCGG [C82U A111G A120U A145G C150A C169U],0.00348
9,GUGCCUUGCGCCGGGAAACCACGCAAGGGAUGGUGUCAAAUUCGGCGAAACCUAAGCGCCCGCCCGGGCGUAUGGCAACGCUGAGCCAAGCUUCGGCGCCUGCGCCGAUGGAGGUGUAGUGACUAGACGGCACCCACCUAAGGCGAACGAUAUGGUGAAGGCAUAGUCCAGGGAGCGGCGAAAGUCACACAAACCGG [C82U A111G A120U A145G C150A U176C],0.00749
10,GUGCCUUGCGCCGGGAAACCACGCAAGGGAUGGUGUCAAAUUCGGCGAAACCUAAGCGCCCGCCCGGGCGUAUGGCAACGCUGAGCCAAGCUUCGGCGCCUGCGCCGAUGGAGGUGUAGUGACUAGACGGCACCCACCUAAGGCGAACGAUAUGGUGAAGGCAUAGUCCAGGGAGGGGCGAAAGUCACACAAACCGG [C82U A111G A120U A145G C150A U176G],0.00267
11,GUGCCUUGCGCCGGGAAACCACGCAAGGGAUGGUGUCAAAUUCGGCGAAACCUAAGCGCCCGCCCGGGCGUAUGGCAACGCUGAGCCAAGCUUCGGCGCCUGCGCCGAUGGAGGUGUAGUGACUAGACGGCACCCACCUAAGGCGAACGAUAUGGUGAAGGCAUAGUCCAGGGAGAGGCGAAAGUCACACAAACCGG [C82U A111G A120U A145G C150A U176A],0.00588
12,GUGCCUUGCGCCGGGAAACCACGCAAGGGAUGGUGUCAAAUUCGGCGAAACCUAAGCGCCCGCCCGGGCGUAUGGCAACGCUGAGCCAAGCUUCGGCGCCUGCGCCGAUGGAGGUGUAGUGACUAGACGGCACCCACCUAAGGCGAACGGUAUGGUGAAGGCAUAGUCAAGGGAGAGGCGAAAGUCACACAAACCGG [C82U A111G A120U A145G C150G C169A U176A],0.0084
13,GUGCCUUGCGCCGGGAAACCACGCAAGGGAUGGUGUCAAAUUCGGCGAAACCUAAGCGCCCGCCCGGGCGUAUGGCAACGCUGAGCCAAGCUUCGGCGCCUGCGCCGAUGGAGGUGUAGUGACUAGACGGCACCCACCUAAGGCGAACGGUAUGGUGAAGGCAUAGUCAAGGGAGGGGCGAAAGUCACACAAACCGG [C82U A111G A120U A145G C150G C169A U176G],0.00326
14,GUGCCUUGCGCCGGGAAACCACGCAAGGGAUGGUGUCAAAUUCGGCGAAACCUAAGCGCCCGCCCGGGCGUAUGGCAACGCUGAGCCAAGCUUCGGCGCCUGCGCCGAUGGAGGUGUAGUGACUAGACGGCACCCACCUAAGGCGAACGGUAUGGUGAAGGCAUAGUCAAGGGAGCGGCGAAAGUCACACAAACCGG [C82U A111G A120U A145G C150G C169A U176C],0.00712
15,GUGCCUUGCGCCGGGAAACCACGCAAGGGAUGGUGUCAAAUUCGGCGAAACCUAAGCGCCCGCCCGGGCGUAUGGCAACGCUGAGCCAAGCUUCGGCGCCUGCGCCGAUGGAGGUGUAGUGACUAGACGGCACCCACCUAAGGCGAACGGUAUGGUGAAGGCAUAGUCGAGGGAGCGGCGAAAGUCACACAAACCGG [C82U A111G A120U A145G C150G C169G U176C],0.00401
